Here are results for 1 molecule from article PMC3197140.

The assay has as its target ^15N labeled FLNA repeat 21.

MASKPEKRVASSVFITLAPPRRDVRRRRRRRRR [WTMigfilinR9 peptide] registered a CBRM1/5 binding (αMβ2 activation) on human neutrophils treated with 50 µM peptide for 5 min at 37°C, flow cytometry of 2 fold.
